# Measurements as given in US20170247465A1, “COMBINATION THERAPY FOR TREATMENT OF CANCER” (OncoMed Pharmaceuticals, Inc., priority 2014, published 2017).
# System: OMP-B90 breast tumor cells
# Assay: OMP-B90 breast tumor xenograft, staggered dosing of Wnt inhibitors and paclitaxel (Example 9)
# Type: in vivo, NOD/SCID mice
# Conditions: Wnt pathway inhibitor 25 mg/kg every two weeks, administered 2 days prior to paclitaxel 10 mg/kg once a week, i.p., FIG. 7
# Experimental: FIG. 7A-7B. Inhibition of breast tumor growth in vivo by a Wnt pathway inhibitor in combination with a taxane using a staggered dosing schedule. FIG. 7A. OMP-B90 breast tumor cells were injected subcutaneously into NOD/SCID mice. Mice were treated with control antibody (-•-), paclitaxel (-▴-), a combination of OMP-18R5 and paclitaxel, where OMP-18R5 was administered on the same day as paclitaxel (-□-), or a combination of OMP-18R5 and paclitaxel, where OMP-18R5 was administered 2 days prior to administration of paclitaxel (-⋄-). FIG. 7B. OMP-B90 breast tumor cells were injected subcutaneously into NOD/SCID mice. Mice were treated with control antibody (-•-), OMP-54F28 (-▪-), paclitaxel (-▴-), a combination of OMP-54F28 and paclitaxel, where OMP-54F28 was administered on the same day as paclitaxel (-□-), or a combination of OMP-54F28 and paclitaxel, where OMP-54F28 was administered 2 days prior to administration of paclitaxel (-⋄-). OMP-18R5, OMP-54F28 and control antibody were administered at 25 mg/kg and paclitaxel was administered at 10 mg/kg. […]
# Single cell suspensions of xenograft OMP-B90 breast tumor cells were injected subcutaneously into 6-8 week old NOD/SCID mice. […] Tumor growth was monitored and tumor volumes were measured with electronic calipers at the indicated time points. Data are expressed as mean±S.E.M.
molecule,measurement,setting,value
"OMP-18R5: anti-FZD antibody, IgG2, also known as vantictumab; heavy chain SEQ ID NO:3, light chain SEQ ID NO:4 (antibody) heavy: EVQLVESGGGLVQPGGSLRLSCAASGFTFSHYTLSWVRQAPGKGLEWVSVISGDGSYTYYADSVKGRFTISSDNSKNTLYLQMNSLRAEDTAVYYCARNFIKYVFANWGQGTLVTVSSASTKGPSVFPLAPCSRSTSESTAALGCLVKDYFPEPVTVSWNSGALTSGVHTFPAVLQSSGLYSLSSVVTVPSSNFGTQTYTCNVDHKPSNTKVDKTVERKCCVECPPCPAPPVAGPSVFLFPPKPKDTLMISRTPEVTCVVVDVSHEDPEVQFNWYVDGVEVHNAKTKPREEQFNSTFRVVSVLTVVHQDWLNGKEYKCKVSNKGLPAPIEKTISKTKGQPREPQVYTLPPSREEMTKNQVSLTCLVKGFYPSDIAVEWESNGQPENNYKTTPPMLDSDGSFFLYSKLTVDKSRWQQGNVFSCSVMHEALHNHYTQKSLSLSPGK light: DIELTQPPSVSVAPGQTARISCSGDNIGSFYVHWYQQKPGQAPVLVIYDKSNRPSGIPERFSGSNSGNTATLTISGTQAEDEADYYCQSYANTLSLVFGGGTKLTVLGQPKAAPSVTLFPPSSEELQANKATLVCLISDFYPGAVTVAWKADSSPVKAGVETTTPSKQSNNKYAASSYLSLTPEQWKSHRSYSCQVTHEGSTVEKTVAPTECS",regression of established tumors,,induced a regression of the established breast tumors
same,inhibition of tumor growth (tumor volume),versus other dosing regimens,significantly better at inhibiting tumor growth of the OMP-B90 breast tumor cells than any of the other dosing regimens
